In article doi:10.1101/047555:
Where no end group is shown, it is not given here. fluorescein = fluorescein-aminocaproic acid; Ahx = NCCCCCC(=O)O

Target: EP12, C-terminal region of MamE containing only the PDZ domains (Magnetospirillum magneticum AMB-1)
Test: fluorescence polarisation

B1: PDZ1* peptide (fluorescein-labelled, phage-derived ligand of MamE PDZ1) (peptide)
peptide: {fluorescein-Ahx}-WSQEMEDWFWQMPLSG
  fold tighter binding than the PDZ2 peptide: 10 fold
